Data taken from patent US20250277003A1 (OSAKA UNIVERSITY, published 2025).

Legend:
WIV1-CoV spike RBD = WIV1-CoV spike RBD (WIV1-CoV); test: bead flow cytometry
BtCoV BM48-31 spike RBD = BtCoV BM48-31 spike RBD (BtCoV BM48-31); test: bead flow cytometry

B1: mAb CR3022 (antibody, V domains shown)
VH: QMQLVQSGTEVKKPGESLKISCKGSGYGFITYWIGWVRQMPGKGLEWMGIIYPGDSETRYSPSFQGQVTISADKSINTAYLQWSSLKASDTAIYYCAGGSGISTPMDVWGQGTTVTVSS
VL: not shown
gMFI (WIV1-CoV spike RBD): 22300
gMFI (BtCoV BM48-31 spike RBD): 72
